Reference: paper PMC3818982 (Microbial Cell Factories, 2013)

Molecular target: T1, human epidermal growth factor receptor (EGFR) (Homo sapiens (A431 and FaDu cells), UniProt P00533)
T1 construct: human EGFR, full-length receptor presented by living A431 (epidermoid carcinoma) and FaDu (squamous carcinoma) cells; also called human EGFR; source: endogenous, on living A431 and FaDu cells
Test: radioligand binding; ^99mTc-labelled sdAb on A431 and FaDu cells, 1 h on ice, with or without pre-blocking by a 40-fold excess of unlabeled Cetuximab; read-out % ID/mg protein
Conditions: one partner purified

B1: EGFR-specific single-domain antibody EG2 (VHH)
VHH: QVKLEESGGGLVQAGDSLRVSCAASGRDFSDYVMGWFRQAPGKEREFVAAISRNGLTTRYADSVKGRFTISRDNDKNMVYLQMNSLKPEDTAVYYCAVNSAGTYVSPRSREYDYWGQGTQVTVSS
notes: an initial methionine was added by the NcoI site; Camelid-derived sdAb; Intradomain disulfide bridge formed in about 98% of the purified protein; also called sdAb EG2; ^99mTc-EG2; source: E. coli SHuffle T7 Express, cytoplasm (pET-28b:EG2), purified (Ni-IDA IMAC); not shown: His6, C-terminal, kept
binding result: binds
